Test system: MS2 coat protein
Assay: apparent KD of MS2 coat protein; higher = weaker reporter binding
Settings: Eterna round: R107
Procedure: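 RNA-MaP round R107: designed RNA switches with theophylline, tryptophan, arginine or FMN aptamers are transcribed on-chip within common flanks. They are titrated with SNAP-549-labelled MS2 coat protein in RNA-MaP buffer (100 mM Tris pH 7.5, 80 mM KCl, 4 mM MgCl2), without ligand or with the indicated ligand. Median apparent KD per design.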

[1] = input ligand: theophylline 20 uM
[2] = input ligand: theophylline 2 mM
[3] = input ligand: tryptophan 2.4 mM

## UAUCGUCAGACGGCCGCCACUAGUACAUGAGGAUCACCCAUGUAGGUCCUAGAUUCCUCAUGAUCUAGGACCGGGUCUGACGAAU [(Trp1)-(Ms2)-(T)'-(M)'-(Trp2)_Design16]
Input ligand: arginine 13.2 mM
  apparent KD of MS2 coat protein: 21.4 nM
[1]
  apparent KD of MS2 coat protein: 61.5 nM
[2]
  apparent KD of MS2 coat protein: 52.9 nM

## AGGUACGGAAUCCUCAUGUAGUCGUACCAACGAGGACCGGUACGGCCGCCACUCGAAUAAACAUGAGGAUCACCCAUGUAAUAAU [T''-M-T'-T-MS2]
Input ligand: arginine 13.2 mM
  apparent KD of MS2 coat protein: 17.6 nM
[1]
  apparent KD of MS2 coat protein: 97.3 nM
[2]
  apparent KD of MS2 coat protein: 90.1 nM

## GAAGGAACCGGAAGGAGCGGGUCCUUAGCCACUACAUGAGGAUCACCCAUGUCCGGGAGGUCCCAGGUAGGUCGCCGGUCUUAAA [Gelece]
Input ligand: arginine 13.2 mM
  apparent KD of MS2 coat protein: 63.9 nM
Input ligand: none
  apparent KD of MS2 coat protein: 277 nM
[1]
  apparent KD of MS2 coat protein: 324 nM
[2]
  apparent KD of MS2 coat protein: 934 nM
[3]
  apparent KD of MS2 coat protein: 267 nM

## AUUCAUGGAAACAUGACAUACAUUACCGGUCGAGGACCGGUACGGCCGCCACUCGGUUGGUGGCACAUGAGGAUCACCCAUGUUA [SS Tryp A #11]
Input ligand: arginine 13.2 mM
  apparent KD of MS2 coat protein: 25.2 nM
[1]
  apparent KD of MS2 coat protein: 44.2 nM
[2]
  apparent KD of MS2 coat protein: 30 nM

## ACGUAUGUCAGAAGGAGCGUCAAUAACAUGAGGAUCACCCAUGUAUUACAUAGGUAUAAUAGACAGGUAGGUCGCUGAAUUCGAA [JR_SSArginiB_Sub022]
Input ligand: arginine 13.2 mM
  apparent KD of MS2 coat protein: 22.4 nM
Input ligand: none
  apparent KD of MS2 coat protein: 29.2 nM
[1]
  apparent KD of MS2 coat protein: 46.4 nM
[2]
  apparent KD of MS2 coat protein: 31.2 nM
[3]
  apparent KD of MS2 coat protein: 27 nM

## ACUUGGUGGUGAUCCCUGCCAAGAGGUGAUACCAGCAUCGAAAGAUGCCCUUGGCAGCACCAACAUGAGGAUCACCCAUGUAAUA [(MT)''-(M)'-(T')-(Theo)-(Ms2)_Design1/22_6]
Input ligand: arginine 13.2 mM
  apparent KD of MS2 coat protein: 62.6 nM
[1]
  apparent KD of MS2 coat protein: 185 nM
[3]
  apparent KD of MS2 coat protein: 214 nM

## UAACAUGAGGAUCACCCAUGUAUACUAAGUCGAGGACCGGUACGGCCGCCACUCGAACUUCAAGAAUAGGCGGUAAAUGUAAGUA [JR_ExcTryptoA_Sub020]
Input ligand: arginine 13.2 mM
  apparent KD of MS2 coat protein: 11.8 nM
[1]
  apparent KD of MS2 coat protein: 16.5 nM
[2]
  apparent KD of MS2 coat protein: 14 nM

## AUUGUGAAGUCGGCCGCCACUGCAUAGUUUAACCACAUGUAACAUGAGGAUCACCCAUGUAAUGACAGGACCGGGACAAUAGUAA [JR_SSTryptoB_Sub023]
Input ligand: arginine 13.2 mM
  apparent KD of MS2 coat protein: 22.2 nM
[1]
  apparent KD of MS2 coat protein: 41.9 nM
[2]
  apparent KD of MS2 coat protein: 29.9 nM

## ACAUGAGGAUCACCCAUGUGUCCUCGAAAACGAGGACCGGUACGGCCGCCACUCGAAAUAAGCGACAAGCGAAAAGCUUGUCGCA [Mat - Exclusion - Trytophan A - D22]
Input ligand: arginine 13.2 mM
  apparent KD of MS2 coat protein: 57.6 nM
Input ligand: none
  apparent KD of MS2 coat protein: 113 nM
[1]
  apparent KD of MS2 coat protein: 194 nM
[2]
  apparent KD of MS2 coat protein: 135 nM
[3]
  apparent KD of MS2 coat protein: 406 nM

## GAGUCCGCGGCGGCCGCCACUCGCGGCGCCACAUGGCGCCGGGACAUGAGGAUCACCCAUGUCCCGAGGACCGGGCCGAUCCUCA [Same State Typrtophan B GF4]
Input ligand: arginine 13.2 mM
  apparent KD of MS2 coat protein: 16.6 nM
Input ligand: none
  apparent KD of MS2 coat protein: 18.1 nM
[1]
  apparent KD of MS2 coat protein: 35.6 nM
[2]
  apparent KD of MS2 coat protein: 33.9 nM
[3]
  apparent KD of MS2 coat protein: 14.5 nM

## GUAUUAACAAAAGUUGAUACAGUGGGUGAACGAGGACCGGUACGGCCGCCACUCGGACAUGAGGAUCACCCAUGUCCAUGUGAAA [AstrosExyTryA#12]
Input ligand: arginine 13.2 mM
  apparent KD of MS2 coat protein: 15.9 nM
[1]
  apparent KD of MS2 coat protein: 19.2 nM
[2]
  apparent KD of MS2 coat protein: 17.2 nM

## UAUAUAUAUAUUGAUACCAGCAGAGAAAACGUUUAUCCUAACAUGAGGAUCACCCAUGUAUGCCCUUGGCAGCGGUAUAUAUAUA [8.D]
Input ligand: arginine 13.2 mM
  apparent KD of MS2 coat protein: 19.7 nM
[1]
  apparent KD of MS2 coat protein: 29.2 nM
[3]
  apparent KD of MS2 coat protein: 22.6 nM

## UGGCAGGAGUGAUCCUCCUGCCAAGGUGAUACCAGCAUCGAAAGAUGCCCUUGGCAGCACCAACAUGAGGAUCACCCAUGUAAUA [(MT)''-(M)'-(T')-(Theo)-(Ms2)_Design1/22_10]
Input ligand: arginine 13.2 mM
  apparent KD of MS2 coat protein: 34.1 nM
[1]
  apparent KD of MS2 coat protein: 177 nM
[3]
  apparent KD of MS2 coat protein: 104 nM

## GCGGGACUUUCGGCCGCCACUGAGAGAGUCGUGUGAACAUGAGGAUCACCCAUGUAAUAUAUAUACAGGACCGGGAGGGUUGCGC [4.Q]
Input ligand: arginine 13.2 mM
  apparent KD of MS2 coat protein: 5.64 nM
Input ligand: none
  apparent KD of MS2 coat protein: 13.4 nM
[1]
  apparent KD of MS2 coat protein: 17.2 nM
[2]
  apparent KD of MS2 coat protein: 14.7 nM
[3]
  apparent KD of MS2 coat protein: 12.8 nM

## GGACCAGGGAGCGAUACCAGCUUGAGUGUGCUGGCCAGGCACAUGAGGAUCACCCAUGUAAGCCCUUGGCAGCGCUCCCUGGUCC [#1 Exclusion - Theophylline B Attempt #27 (HarryS)]
Input ligand: arginine 13.2 mM
  apparent KD of MS2 coat protein: 6.87 nM
Input ligand: none
  apparent KD of MS2 coat protein: 9.65 nM
[1]
  apparent KD of MS2 coat protein: 15.3 nM
[2]
  apparent KD of MS2 coat protein: 13.9 nM
[3]
  apparent KD of MS2 coat protein: 11.1 nM

## AAUUCCUCACAUGAGGAUCACCCAUGUGAAGGAGCGCCGAAUAAGGCAGGUAGGUCGCACAUGGAAACCGCUGCGAAAGCAGCAA [MAT - Exclusion Arginine A - Mod of Eli - D25]
Input ligand: arginine 13.2 mM
  apparent KD of MS2 coat protein: 21 nM
Input ligand: none
  apparent KD of MS2 coat protein: 21.7 nM
[1]
  apparent KD of MS2 coat protein: 33.2 nM
[2]
  apparent KD of MS2 coat protein: 25 nM
[3]
  apparent KD of MS2 coat protein: 24.5 nM

## AUUGUGAAGUCGGCCGCCACUGCAUAGUUUAACCUCUUUUAACAUGAGGAUCACCCAUGUAAUGACAGGACCGGGACAAUAGUAA [JR_SSTryptoB_Sub022]
Input ligand: arginine 13.2 mM
  apparent KD of MS2 coat protein: 54.3 nM
[1]
  apparent KD of MS2 coat protein: 92.3 nM
[2]
  apparent KD of MS2 coat protein: 79.7 nM

## GGGUAAGAUCCGGAUACCAGCGAACAUGAGGAUCACCCAUGUGAAAUAAGAUAGACUAAACGCCCUUGGCAGCCGAAAUAGCGUU [Same State Theophylline B GF 4]
Input ligand: arginine 13.2 mM
  apparent KD of MS2 coat protein: 17.9 nM
Input ligand: none
  apparent KD of MS2 coat protein: 46.6 nM
[1]
  apparent KD of MS2 coat protein: 84.7 nM
[2]
  apparent KD of MS2 coat protein: 48.9 nM
[3]
  apparent KD of MS2 coat protein: 44.1 nM

## AACAUGAGGACGGAUACCAGUCACAUGAGGAUCACCCAUGUACAUGAGGAUCACCCAUGUGGCCCUUGGCAGCCGCAUGUGAUCA [Exclusion Theophylline B 4]
Input ligand: arginine 13.2 mM
  apparent KD of MS2 coat protein: 124 nM
[1]
  apparent KD of MS2 coat protein: 308 nM
[3]
  apparent KD of MS2 coat protein: 412 nM

## GUCCUCAGCCGAAGGAGCGCUAGAAGGUGACAUGAGGAUCACCCAUGUGUGUGAUGUGGCUAGCAGGUAGGUCGCGGAGAGGAUU [Exclusion - Arginine B (Freestyle 17)]
Input ligand: arginine 13.2 mM
  apparent KD of MS2 coat protein: 107 nM
Input ligand: none
  apparent KD of MS2 coat protein: 98.6 nM
[1]
  apparent KD of MS2 coat protein: 157 nM
[2]
  apparent KD of MS2 coat protein: 127 nM
[3]
  apparent KD of MS2 coat protein: 78.8 nM

## AGAUGAGUCACGGCCGCCACUCUUAUCAGGAUCACCCAUGGUUGACAUGAGGAUCACCCAUGUAUGAGGACCGGGUGAUGAGCAU [XTryp B #1]
Input ligand: arginine 13.2 mM
  apparent KD of MS2 coat protein: 13.7 nM
[1]
  apparent KD of MS2 coat protein: 15.9 nM
[2]
  apparent KD of MS2 coat protein: 15 nM

## UACAUGAGGAUCACCCAUGUAUGAAUAGAUACCAGAUAAAAUAAGGUCCCUUGGCAGCUAGUGAAUCGAGGGUGGGUAUCAUGAU [#12 Exclusion-TheophyllineA]
Input ligand: arginine 13.2 mM
  apparent KD of MS2 coat protein: 9.47 nM
[1]
  apparent KD of MS2 coat protein: 12.7 nM
[3]
  apparent KD of MS2 coat protein: 9.93 nM

## AGUCUAUGAAGAGAUACCAGUGAGAGACAUAGACAUGAGGAUCACCCAUGUGACAUGAAGCACCCUUGGCAGCUCAACGAGCUCA [Theo B SS t1]
Input ligand: arginine 13.2 mM
  apparent KD of MS2 coat protein: 31.4 nM
[1]
  apparent KD of MS2 coat protein: 50 nM
[3]
  apparent KD of MS2 coat protein: 39 nM

## GCCGCGGCCGCGAUACACAUGGGUGUGUAACGAGGACCGGUACGGCCGCCACUCGAGAUGGUGCACAUGAGGAUCACCCAUGUGC [Exclusion Tryp A GF15]
Input ligand: arginine 13.2 mM
  apparent KD of MS2 coat protein: 10.3 nM
Input ligand: none
  apparent KD of MS2 coat protein: 14.9 nM
[1]
  apparent KD of MS2 coat protein: 14.1 nM
[2]
  apparent KD of MS2 coat protein: 19.3 nM
[3]
  apparent KD of MS2 coat protein: 12.1 nM

## GGAUAGGACAGAAGGAGCGGCAUGGCAGAAACUGCAAUCCUCCUACACGAGGAUCACCCGUGUCAGGUAGGUCGCUGUCCUAUCG [ArgXB 13 #Zipper #MS2Left #StaticStem #Blueprint]
Input ligand: arginine 13.2 mM
  apparent KD of MS2 coat protein: 18.5 nM
Input ligand: none
  apparent KD of MS2 coat protein: 15.1 nM
[1]
  apparent KD of MS2 coat protein: 20.4 nM
[2]
  apparent KD of MS2 coat protein: 19 nM
[3]
  apparent KD of MS2 coat protein: 15 nM

## ACGACGGCUGCGGCCGCCACUGUACAUGAGGAUCACCCAUGUGUAGUAAUUGGGACCCUGUGUUACAGGACCGGGUAGUUGAUUA [Orquteer]
Input ligand: arginine 13.2 mM
  apparent KD of MS2 coat protein: 23.3 nM
[1]
  apparent KD of MS2 coat protein: 49 nM
[2]
  apparent KD of MS2 coat protein: 47.1 nM

## AGAAUGUAAUAUGGCAAAGUUAUAACCGAAGGAGCGCCGAAUAAGGCAGGUAGGUCGCGGAAACAUGAGGAUCACCCAUGUCCAU [Arginine A Same State; Euphoria Solution 3]
Input ligand: arginine 13.2 mM
  apparent KD of MS2 coat protein: 18.1 nM
Input ligand: none
  apparent KD of MS2 coat protein: 17.3 nM
[1]
  apparent KD of MS2 coat protein: 19 nM
[2]
  apparent KD of MS2 coat protein: 14.4 nM
[3]
  apparent KD of MS2 coat protein: 18 nM

## UUUUUUAACAUGGCGUAUCGGAAAACCGAUACCAGUACAGAAAUGUACCCUUGGCAGCGGCGUUUUACAUGAGGAUCACCCAUGU [Ex Theophylline A 3]
Input ligand: arginine 13.2 mM
  apparent KD of MS2 coat protein: 21.2 nM
[1]
  apparent KD of MS2 coat protein: 65 nM
[3]
  apparent KD of MS2 coat protein: 27.7 nM

From the supplement of paper PMC9170038
